According to patent publication US20250011363A1, “OPTIMIZED SHORTENED PEPTIDE THAT BINDS TO ACETYLCHOLINE RECEPTOR, AND USE THEREOF” (SKINMED CO., LTD., priority 2021, published 2025):

How the values were obtained:
acetylcholine receptor [1] = assay: SPR, AchR immobilised, peptide 10 uM
acetylcholine receptor [2] = assay: SPR, AchR immobilized on CM5 chip, peptide 10 uM

| Binder | Binding affinity (RU) (acetylcholine receptor [1]) | Binding affinity (RU) (acetylcholine receptor [2]) |
| --- | --- | --- |
| KKFTKK [6mer-1-604] | 24 | – |
| RKHNGR [6mer-1-748] | – | 24 |
| KRPHFK [6mer-1-603] | 13 | – |
| RKHEIK [6mer-1-744] | – | 31 |
| RKCCEK [6mer-1-739] | – | 32 |
| KKQYYR [6mer-1-398] | – | 137 |
| RKPHWR [6mer-1-749] | – | 33 |
| KKTMVR [6mer-1-743] | – | 14 |
| RKDNKR [6mer-1-740] | – | 26 |
| RKNADR [6mer-1-605] | 20 | – |
| KRWILR [6mer-1-399] | – | 125 |
| KRWQTK [6mer-1-400] | – | 123 |
| RRTNFK [6mer-1-751] | – | 27 |
| RKMSVK [6mer-1-746] | – | 24 |
| KKATDK [6mer-1-736] | – | 15 |
| KKRQTK [6mer-1-395] | – | 125 |

| Binder | Binding affinity (RU) (acetylcholine receptor [1]) | Binding affinity (RU) (acetylcholine receptor [2]) |
| --- | --- | --- |
| KRPTEK [6mer-1-752] | – | 16 |
| RRTHER [6mer-1-734] | – | 21 |
| RKEAGR [6mer-1-741] | – | 24 |
| KRENIK [6mer-1-750] | – | 33 |
| KRQIQK [6mer-1-396] | – | 148 |
| RRFHWR [6mer-1-742] | – | 14 |
| RRKNAR [6mer-1-737] | – | 27 |
| RKDKER [6mer-1-735] | – | 19 |
| RRLYCR [6mer-1-401] | – | 127 |
| KKKMFK [6mer-1-733] | – | 21 |
| RKAEKR [6mer-1-602] | 18 | – |
| KKTMEK [6mer-1-745] | – | 11 |
| KKTMDR [6mer-1-747] | – | 24 |
| KKEWNK [6mer-1-601] | 27 | – |
| RKYHHR [6mer-1-738] | – | 25 |
| KRLILR [6mer-1-397] | – | 125 |

Next, values leading:

| Binding affinity (RU) (acetylcholine receptor [1]) | Binding affinity (RU) (acetylcholine receptor [2]) | Binder |
| --- | --- | --- |
| – | 16 | RRHWDK [6mer-1-781] |
| – | 16 | KKESIK [6mer-1-787] |
| – | 21 | KRMMVR [6mer-1-760] |
| – | 15 | RKCTIR [6mer-1-766] |
| – | 30 | KKNAWK [6mer-1-782] |
| – | 33 | RKAKMK [6mer-1-756] |
| – | 30 | KRKDKK [6mer-1-792] |
| – | 12 | KRNCAK [6mer-1-772] |
| – | 33 | KKYHHR [6mer-1-758] |
| – | 17 | KKMDIK [6mer-1-771] |
| – | 25 | RRANMR [6mer-1-755] |
| – | 24 | KRKCWR [6mer-1-780] |
| – | 22 | RRAWNK [6mer-1-797] |
| – | 31 | KKTPNR [6mer-1-793] |
| – | 13 | KKTKAR [6mer-1-762] |
| – | 25 | KRASPK [6mer-1-765] |
| – | 33 | RKETFR [6mer-1-761] |
| – | 11 | RKYEPK [6mer-1-794] |
| – | 28 | RRDDFR [6mer-1-778] |
| – | 26 | RKDNEK [6mer-1-757] |
| – | 33 | KKFTPK [6mer-1-784] |
| – | 24 | RKKKMK [6mer-1-754] |
| – | 19 | KKTCER [6mer-1-785] |

| Binding affinity (RU) (acetylcholine receptor [1]) | Binding affinity (RU) (acetylcholine receptor [2]) | Binder |
| --- | --- | --- |
| – | 18 | KRTPDK [6mer-1-767] |
| – | 23 | RKMTWR [6mer-1-759] |
| – | 22 | RKIPKK [6mer-1-788] |
| – | 29 | KKNEFK [6mer-1-783] |
| – | 12 | RRDCAK [6mer-1-763] |
| – | 29 | RKTNAR [6mer-1-770] |
| – | 14 | RKMPVK [6mer-1-769] |
| – | 13 | KKTSIK [6mer-1-776] |
| – | 24 | RRNPFK [6mer-1-764] |
| – | 12 | KKDTHK [6mer-1-753] |
| – | 21 | KKEMER [6mer-1-774] |
| – | 19 | KRMMPK [6mer-1-789] |
| – | 32 | RKFEWK [6mer-1-768] |
| – | 13 | RKPDDK [6mer-1-791] |
| – | 12 | KKYPWR [6mer-1-775] |
| – | 29 | KRTEIR [6mer-1-773] |
| – | 12 | KKPNPK [6mer-1-790] |
| – | 30 | RRPDAR [6mer-1-779] |
| – | 28 | RRHAFK [6mer-1-796] |
| – | 26 | KRIKEK [6mer-1-786] |
| – | 18 | RRDCFR [6mer-1-798] |
| – | 12 | KKCHMR [6mer-1-795] |
| – | 16 | RRHNHR [6mer-1-777] |
